Starred links: 1 amine or outer side, 2 acyl side, 3 side chain; linkers in the order of their positions; H or OH if unused. Positions of bridges follow the written chain, without caps; N, C: chain ends. Non-standard residues stand in square brackets, D forms with d. Primed or numbered codes have the meaning given here. PyrS2″ = (S)-3-amino-1-((pent-4-en-1-yloxy)carbonyl)pyrrolidine-3-carboxylic acid (stapling residue), C=CCCCOC(=O)N1CC[C@@](N[*:1])(C(=O)[*:2])C1; B5(24) = 2-amino-2-(pent-4-en-1-yl)hept-6-enoic acid, 2,2-bis(4-pentenyl)glycine (stitching residue), C=CCCCC(CCCC=C)(N[*:1])C(=O)[*:2]; B5(4) = 2,2-bis(4-pentenyl)glycine = 2-amino-2-(pent-4-en-1-yl)hept-6-enoic acid (stitching residue), C=CCCCC(CCCC=C)(N[*:1])C(=O)[*:2]; B5(5) = 2,2-bis(4-pentenyl)glycine, 2-amino-2-(pent-4-en-1-yl)hept-6-enoic acid (stitching residue), C=CCCCC(CCCC=C)(N[*:1])C(=O)[*:2]; B5(31) = 2-amino-2-(pent-4-en-1-yl)hept-6-enoic acid (bis-pentenylglycine, stitching residue), C=CCCCC(CCCC=C)(N[*:1])C(=O)[*:2]; B5(3) = 2,2-bis(4-pentenyl)glycine (stitching residue), C=CCCCC(CCCC=C)(N[*:1])C(=O)[*:2]; Phe(3-CF3) = N[C@@H](Cc1cccc(C(F)(F)F)c1)C(=O)O; Phe(4-CF3) = N[C@@H](Cc1ccc(C(F)(F)F)cc1)C(=O)O; Phe(3-OMe) = COc1cccc(C[C@H](N)C(=O)O)c1; Phe(2-Cl) = N[C@@H](Cc1ccccc1Cl)C(=O)O; 1Nal = N[C@@H](Cc1cccc2ccccc12)C(=O)O; 2Nal = N[C@@H](Cc1ccc2ccccc2c1)C(=O)O; Phe(2-F) = N[C@@H](Cc1ccccc1F)C(=O)O; Bta = N[C@@H](Cc1csc2ccccc12)C(=O)O; Lys(iPr) = CC(C)NCCCC[C@H](N)C(=O)O; αAllylPro = C=CC[C@@]1(C(=O)O)CCCN1; tBuAla = CC(C)(C)C[C@H](N)C(=O)O; 3Thi = N[C@@H](Cc1ccsc1)C(=O)O; Cha = N[C@@H](CC1CCCCC1)C(=O)O; hSer = N[C@@H](CCO)C(=O)O; Aib = CC(C)(N)C(=O)O
What was measured:
[1] = target: full-length beta-Catenin (Uniprot ID P35222) (Homo sapiens (Human)) (UniProt P35222); assay: fluorescence polarization competition; 10 nM full-length beta-catenin + 10 nM 5FAM-TCF4(10-53) probe; peptide titrated 10 uM to 5 nM
Target sequence in this assay (P35222 2-781 limits assumed): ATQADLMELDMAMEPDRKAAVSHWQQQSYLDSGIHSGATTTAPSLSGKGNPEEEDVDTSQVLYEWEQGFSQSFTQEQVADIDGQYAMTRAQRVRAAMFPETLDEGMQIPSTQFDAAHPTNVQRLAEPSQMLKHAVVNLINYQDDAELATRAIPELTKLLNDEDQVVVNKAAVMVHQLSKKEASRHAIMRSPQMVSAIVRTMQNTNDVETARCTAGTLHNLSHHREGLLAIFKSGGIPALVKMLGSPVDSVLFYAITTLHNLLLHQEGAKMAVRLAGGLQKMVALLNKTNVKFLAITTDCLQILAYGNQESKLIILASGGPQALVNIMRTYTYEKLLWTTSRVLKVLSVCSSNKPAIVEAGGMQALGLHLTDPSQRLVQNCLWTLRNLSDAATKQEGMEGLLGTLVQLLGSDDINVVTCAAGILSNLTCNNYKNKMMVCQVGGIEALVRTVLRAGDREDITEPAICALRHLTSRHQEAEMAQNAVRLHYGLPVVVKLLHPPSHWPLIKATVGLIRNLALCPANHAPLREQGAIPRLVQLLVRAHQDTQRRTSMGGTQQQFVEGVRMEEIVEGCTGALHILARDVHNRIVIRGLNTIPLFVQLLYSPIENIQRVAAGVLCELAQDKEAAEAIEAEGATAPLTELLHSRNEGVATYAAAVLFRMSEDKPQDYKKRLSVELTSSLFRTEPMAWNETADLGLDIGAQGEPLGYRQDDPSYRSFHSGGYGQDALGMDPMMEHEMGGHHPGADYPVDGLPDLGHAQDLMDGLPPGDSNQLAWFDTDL

[2] = target: full-length beta-Catenin (Uniprot ID P35222) (Homo sapiens (Human)) (UniProt P35222); assay: fluorescence polarization competition; 10 nM full-length beta-catenin + 10 nM 5FAM-TCF4 10-53 as competitor probe
Target sequence in this assay (P35222 2-781 limits assumed): as above

[3] = target: full-length beta-Catenin (Uniprot ID P35222) (Homo sapiens (Human)) (UniProt P35222); assay: fluorescence polarization competition; full-length beta-catenin, competitor 5FAM-TCF4 10-53
Target sequence in this assay (P35222 whole entry): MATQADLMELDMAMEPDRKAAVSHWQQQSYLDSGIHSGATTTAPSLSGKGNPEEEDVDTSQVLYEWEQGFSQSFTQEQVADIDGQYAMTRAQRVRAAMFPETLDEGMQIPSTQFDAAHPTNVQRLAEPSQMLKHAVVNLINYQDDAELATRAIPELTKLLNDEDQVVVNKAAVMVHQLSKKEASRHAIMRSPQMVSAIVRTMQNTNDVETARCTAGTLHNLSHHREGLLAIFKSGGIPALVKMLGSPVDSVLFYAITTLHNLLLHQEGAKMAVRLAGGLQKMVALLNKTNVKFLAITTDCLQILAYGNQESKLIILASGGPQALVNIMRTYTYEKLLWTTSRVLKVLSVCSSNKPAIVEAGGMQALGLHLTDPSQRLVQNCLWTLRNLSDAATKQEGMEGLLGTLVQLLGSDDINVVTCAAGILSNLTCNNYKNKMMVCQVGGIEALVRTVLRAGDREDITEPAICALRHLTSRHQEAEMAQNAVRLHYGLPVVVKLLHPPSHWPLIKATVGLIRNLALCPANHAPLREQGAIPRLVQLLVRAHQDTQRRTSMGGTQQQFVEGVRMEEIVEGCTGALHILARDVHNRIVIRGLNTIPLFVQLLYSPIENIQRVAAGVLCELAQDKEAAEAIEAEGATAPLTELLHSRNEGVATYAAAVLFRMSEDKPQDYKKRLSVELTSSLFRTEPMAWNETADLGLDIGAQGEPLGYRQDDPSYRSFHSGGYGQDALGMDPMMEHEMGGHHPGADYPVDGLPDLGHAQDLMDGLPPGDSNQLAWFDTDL

[4] = target: full-length beta-Catenin (Uniprot ID P35222) (Homo sapiens (Human)) (UniProt P35222); assay: fluorescence polarization competition, 5FAM-TCF4 10-53 probe on full-length beta-catenin
Target sequence in this assay (P35222 2-781 limits assumed): as the sequence (P35222 2-781 limits assumed) above

[5] = target: full-length beta-Catenin (Uniprot ID P35222) (Homo sapiens (Human)) (UniProt P35222); assay: fluorescence polarization competition, full-length beta-catenin, competitor 5FAM-TCF4 10-53
Target sequence in this assay (P35222 whole entry): as the sequence (P35222 whole entry) above

| IC50 [1] [nM] | EC50 [4] [nM] | IC50 [5] [nM] | Binder | further results |
| --- | --- | --- | --- | --- |
| 2820 |  |  | Ac-[αAllylPro]D[tBuAla][B5(31)]NTA[Aib]FN[PyrS2″][3Thi][Bta]Q-NH2 (staple 1-4, 4-11) [I-2339] |  |
| 422 |  |  | Ac-[αAllylPro]N[Cha][B5(31)]DK[Lys(iPr)]AFL[PyrS2″]F[Bta]Q-NH2 (staple 1-4, 4-11; also: staple isomer, earlier eluting HPLC peak) [I-2346] |  |
| 586 |  |  | Ac-[αAllylPro]N[Cha][B5(31)]D[hSer][Lys(iPr)]AFL[PyrS2″]F[Bta]Q-NH2 (staple 1-4, 4-11; also: staple isomer, earlier eluting HPLC peak) [I-2344] |  |
| 179 |  |  | Ac-[αAllylPro]N[Cha][B5(31)]DH[Lys(iPr)]AFL[PyrS2″]F[Bta]Q-NH2 (staple 1-4, 4-11; also: staple isomer, earlier eluting HPLC peak) [I-2348] |  |
| 5630 |  |  | Ac-[αAllylPro]N[Cha][B5(31)]DK[Lys(iPr)]AFL[PyrS2″]F[Bta]Q-NH2 (staple 1-4, 4-11) [I-2347] |  |
| 100 |  |  | Ac-[αAllylPro]N[Cha][B5(3)]DQ[hSer]AFL[PyrS2″]F[Bta]Q-NH2 (staple 1-4, 4-11; also: earlier eluting isomer, configuration not given here) [I-2354] |  |
|  | 6 | 6 | Ac-[αAllylPro]D[tBuAla][B5(24)]DDAAFN[PyrS2″][Phe(2-Cl)][Bta][Lys(iPr)]-NH2 (staple 1-4, 4-11) [I-1130] |  |
| 63 |  |  | Ac-[αAllylPro]N[Cha][B5(3)]DQ[Lys(iPr)]AFL[PyrS2″]F[Bta]K-NH2 (staple 1-4, 4-11) [I-2350] |  |
| 187 |  |  | Ac-[αAllylPro]N[Cha][B5(4)]DQ[Lys(iPr)]AFL[PyrS2″]F[Bta]H-NH2 (staple 1-4, 4-11) [I-2351] |  |
|  | 7 | 7 | Ac-[αAllylPro]D[tBuAla][B5(24)]DD[Lys(iPr)]AFN[PyrS2″][Phe(2-Cl)][Bta]Q-NH2 (staple 1-4, 4-11) [I-1131] |  |
| 417 |  |  | Ac-[αAllylPro]N[Cha][B5(4)]DQ[hSer]AFL[PyrS2″]F[Bta]Q-NH2 (staple 1-4, 4-11; also: later eluting isomer composition (HPLC), configuration not given here) [I-2355] |  |
| 211 |  |  | Ac-[αAllylPro]N[Cha][B5(4)]DQ[Lys(iPr)]AFL[PyrS2″]F[Bta]A-NH2 (staple 1-4, 4-11) [I-2352] |  |
| 1160 |  |  | Ac-[αAllylPro]N[Cha][B5(31)]DH[Lys(iPr)]AFL[PyrS2″]F[Bta]Q-NH2 (staple 1-4, 4-11) [I-2349] |  |
| 2760 |  |  | Ac-[αAllylPro][hSer][Cha][B5(4)]DQ[Lys(iPr)]AFL[PyrS2″]F[Bta]Q-NH2 (staple 1-4, 4-11) [I-2353] |  |
| 1270 |  |  | Ac-[αAllylPro]N[Cha][B5(31)]D[hSer][Lys(iPr)]AFL[PyrS2″]F[Bta]Q-NH2 (staple 1-4, 4-11) [I-2345] |  |
| 63 |  |  | Ac-[αAllylPro]D[tBuAla][B5(3)]NT[Aib]AFN[PyrS2″][3Thi][Bta]Q-NH2 (staple 1-4, 4-11) [I-2338] |  |

The next lines start with the binder.

| Binder | IC50 [1] [nM] | EC50 [4] [nM] | IC50 [5] [nM] | further results |
| --- | --- | --- | --- | --- |
| Ac-[αAllylPro]D[tBuAla][B5(5)]DEAAFL[PyrS2″][Phe(2-Cl)][Bta][dT]-NH2 (staple 1-4, 4-11) [I-1039] |  |  |  | EC50 [2]: 57 nM; IC50 [3]: 57 nM |
| Ac-[αAllylPro]D[Cha][B5(3)]DDAAFS[PyrS2″]F[Bta]Q-NH2 (staple 1-4, 4-11 (inferred); not fully specified (residue 9); printed as Ac-PL3-Asp-Cha-B5-Asp-Asp-Ala-Ala-4F3MeF-Ser-PyrS2-Phe-BztA-Gln-NH2) [I-1126] |  | 32 | 32 |  |
| Ac-[αAllylPro]D[Cha][B5(3)]DDAA[Phe(3-OMe)]S[PyrS2″]F[Bta]Q-NH2 (staple 1-4, 4-11 (inferred)) [I-1124] |  | 12 | 12 |  |
| Ac-[αAllylPro]F[tBuAla][B5(5)]DDAADN[PyrS2″][3Thi][Bta]Q-OH (staple 1-4, 4-11) [I-1027] |  |  |  | EC50 [2]: 1140 nM |
| Ac-[αAllylPro]D[2Nal][B5(4)]DDAAFL[PyrS2″][Phe(2-Cl)][Bta]S-NH2 (staple 1-4, 4-11) [I-1117] |  | 55 | 55 |  |
| Ac-[αAllylPro]D[Cha][B5(3)]DDAA[Phe(3-OMe)]S[PyrS2″][Phe(2-Cl)][Bta]Q-NH2 (staple 1-4, 4-11 (inferred)) [I-1118] |  | 24 | 24 |  |
| Ac-[αAllylPro]D[Cha][B5(3)]DDAA[Phe(3-CF3)]S[PyrS2″]F[Bta]Q-NH2 (staple 1-4, 4-11 (inferred)) [I-1125] |  | 16 | 16 |  |
| Ac-[αAllylPro]D[tBuAla][B5(5)]DEAAFF[PyrS2″][Phe(2-Cl)][Bta][dT]-NH2 (staple 1-4, 4-11) [I-1038] |  |  |  | EC50 [2]: 101 nM; IC50 [3]: 101 nM |
| Ac-[αAllylPro]D[Cha][B5(3)]DDAA[Phe(3-CF3)]S[PyrS2″][Phe(2-Cl)][Bta]Q-NH2 (staple 1-4, 4-11 (inferred)) [I-1119] |  | 26 | 26 |  |
| Ac-[αAllylPro]D[Cha][B5(3)]DDAAFS[PyrS2″][Phe(2-Cl)][Bta]Q-NH2 (staple 1-4, 4-11 (inferred); not fully specified (residue 9); printed as Ac-PL3-Asp-Cha-B5-Asp-Asp-Ala-Ala-4F3MeF-Ser-PyrS2-2C1F-BztA-Gln-NH2) [I-1120] |  | 85 | 85 |  |
| Ac-[αAllylPro]D[tBuAla][B5(5)]DNAAFT[PyrS2″][Phe(2-F)][Bta]S-NH2 (staple 1-4, 4-11) [I-1024] |  |  |  | EC50 [2]: 43 nM; IC50 [3]: 43 nM |
| Ac-[αAllylPro]D[1Nal][B5(4)]DDAAFL[PyrS2″][Phe(2-Cl)][Bta]S-NH2 (staple 1-4, 4-11) [I-1116] |  | 40 | 40 |  |

Reference: patent publication US20240116985A1, “STAPLED PEPTIDES AND METHODS THEREOF” (priority 2020, published 2024)
